Laboratory results: publication PMC10883267 (2023)

B1: mouse eIF4E1B (63-244) [mouse] / eIF4E-binding motif of human eIF4ENIF1 (27-63) [human] (parent complex)
chain 1: KLHPLQYRWVLWFFKNDRSRAWQDNLQLVTKFNTVEDFWAVYSHIKLASKLSSGCDYALFKEGILPMWEDNRNKQGGRWLLSIDKQLRHFELDRLWLETLLCLVGNCFEEYSREVCGAVVNIRTKRDKIALWTSEAEDKAGVMQIGQIYKERLGISTKTIIGYQAHADTAAKSNNLANKFVV
chain 2: PHRYTKEELLDIKELPHSKQRPSCLSEKYDSDGVWDP
B2: mouse eIF4E1B (63-244) [mouse] / eIF4E-binding motif of human eIF4G (608-647) [human] (parent complex)
chain 1: B1 chain 1
chain 2: EKKRYDREFLLGFQFIFASMQKPEGLPHISDVVLDKANKT
B3: mouse eIF4E1B (63-244) [mouse] / eIF4E-binding motif of human eIF4EBP1 (50-83) [human] (parent complex)
chain 1: B1 chain 1
chain 2: TRIIYDRKFLMECRNSPVTKTPPRDLPTIPGVTS

Variants of: B1
Experiment: pulldown with E. coli lysates, quantified; n = 3 independent experiments; parent: 2.5; read off a plot

screen value | Variant
~1.4 rel. to Mm eIF4E | chain 1 K50N, chain 1 S52M, chain 1 N71E, chain 1 H89R
~1.6 rel. to Mm eIF4E | chain 1 K50N
~1.6 rel. to Mm eIF4E | chain 1 K46E

Variants of: B2
Experiment: pulldown with E. coli lysates, quantified; n = 3 independent experiments; parent: 0.3; read off a plot

screen value | Variant
~0.22 rel. to Mm eIF4E | chain 1 K50N, chain 1 S52M, chain 1 N71E, chain 1 H89R
~0.13 rel. to Mm eIF4E | chain 1 K46E
~0.22 rel. to Mm eIF4E | chain 1 K50N

Variants of: B3
Experiment: pulldown with E. coli lysates, quantified; n = 3 independent experiments; parent: 0.9; read off a plot

screen value | Variant
~0.68 rel. to Mm eIF4E | chain 1 K50N
~0.7 rel. to Mm eIF4E | chain 1 K50N, chain 1 S52M, chain 1 N71E, chain 1 H89R
~0.85 rel. to Mm eIF4E | chain 1 K46E
